Results on two substances are retold here after article PMC5536072.

For this series, the system named is p53 (full-length human) (Homo sapiens). In words: AFM. The conditions noted are these: AFM on mica, 'physiological buffer conditions', binding buffer and temperature not given in the material, DNA stock in 10 mM Tris-HCl pH 7.6, 1 mM EDTA.

Broadly, the Kd is the constant that tells how readily two partners part at equilibrium. For 20,000 bp DNA, the dissociation constant (Kd) (logistic fit of site occupancy against p53 18.9-56.6 nM, DNA 1 ng/uL) amounted to 328 nM. In turn, 5000 bp DNA had a Kd (stated as approximately the same Kd as for 20,000 bp DNA, p53 18.9-56.6 nM) of 328 nM.
